We go through one molecule from patent US8460669B2, “Compositions and methods for identifying response targets and treating flavivirus infection responses” (Academia Sinica, priority 2005, dated 2013).

Entries after “also recorded” stand apart in the source; their conditions may differ.

The test system of assay [1] is Dengue virus. The assay can be described thus: Immunoprecipitation of Dengue virus with receptor.Fc. It counts as binding. The note with it: receptor.Fc 5 μg; DV 5×10^6; listed as DVLR1/CLEC5A.Fc. How it is done: The results are depicted in FIG. 8A (** indicates p<0.01, *** indicates p<0.001 (Student's t test)). […] Specifically, 5×10^6 Dengue virus particles were incubated with 5 μg of each protein, and then Protein A beads were added. The resulting immunocomplexes were washed, separated by SDS-PAGE, and transferred onto nitrocellulose membrane. The membrane was then probed with biotinylated anti-DEN2 envelope protein antibody and developed with horseradish peroxidase-conjugated streptavidin.
In FIG. 16b, complexes of DV (5×10^6 PFU) with receptor.Fc (5 μg) were immunoprecipitated and detected on westerns with mAb to DV envelope (E) protein. […] FIGS. 16d and 16e show sugar competition assays wherein both DC-SIGN (CLEC4L) and DVLR1/CLEC5A increase DV binding to human 293T cells (FIG. 16d), while addition of sugars inhibits biotinylated DV binding to DC-SIGN- (left panel) or DLVR1/CLEC5A- (right panel) transfected 293T cells in a dose-dependent manner as determined by flow cytometry (FIG. 16e). According to FIG. 16e, MFI represents mean fluorescence intensity. Units (U) for monosaccharide (mannose and fucose) and polysaccharide (mannan) are mM and mg/ml, respectively. […] Data are expressed as the mean±s.d. of three independent experiments. Two-tailed, Student's t-tests were performed. […]

Assay [2] deals with Dengue virus. Put plainly: ELISA of receptor.Fc interaction with Dengue virus. It counts as binding. The note with it: for binding to DV pretreated with heat or dithiothreitol: 95° C. 5 min or DTT 0.1 M; for binding to DV pretreated with PNGaseF: PNGaseF 500 U; for interaction of receptor.Fc with Dengue virus (ELISA): receptor.Fc 1 μg, DV 5×10^6. As for the experimental part:
One μg of each receptor.Fc fusion protein was coated onto microtiter plates overnight at 4° C. DV (5×10^6 particles) of strain 16681 (a DEN2 strain) in binding buffer (1% BSA, 2 mM CaCl2, 2 mM MgCl2, 50 mM Tris-HCl pH 7.5, 150 mM NaCl) was then added to the plates and the plates were incubated for 2 hours. After washing non-bound virus, a biotinylated anti-DEN2 envelope protein antibody (Wu et al., J Virol, 2002. 76(8): p. 3596-604) was applied to bind to the virus for 1 hour. Diluted horseradish peroxidase-conjugated streptavidin was then added to the plates, followed by a 1 hour incubation. TMB substrate was then added and the plates were read using an ELISA reader at OD450 nm.
The microtiter plate assay was repeated in the presence of EDTA (10 mM) to chelate Ca^++ cations.
The microtiter plate assay was also repeated for DVLR1/CLEC5A.Fc fusion protein with DV particles (5×10^6) that had been 1) preincubated with 500 U of the glycosidase PNGaseF (New England Biolabs, Inc.) overnight at 37° C.; or 2) treated with dithiothreitol (DTTI) (0.1M); or 3) incubated at 95° C. for 5 minutes; or 4) UV irradiated for 5 minutes. The results are shown in FIG. 8D (asterisks indicate where the binding affinity of DVLR1/CLEC5A.Fc fusion protein is altered by modification of the virus relative to non-treated virus; ** p<0.01, *** p<0.001, Student's t test). […]
In general terms: In an ELISA, binding on a coated surface is turned into a signal by an enzyme label.

Assay [3] has as its system JEV. The assay can be described thus: ELISA of DVLR1/CLEC5A.Fc interaction with JEV. The note with it: 1 μg; JEV 5×10^6 PFU. It counts as binding, Japanese encephamyelitis virus. As for the experimental part:
Like with DV, JEV follows a similar virus infection response pattern, which is believed to be the same or similar in all flaviviruses. […] (1 μg), with JEV and DV (5×10^6 PFU), respectively, were determined by ELISA. DV interacts with human DVLR1/CLEC5A (187 amino acid in length) SEQ ID NO: 72, but not the alternatively spliced form sDVLR1/CLEC5A (aa 43-65 is deleted). SEQ ID NO: 73. […] DAP12 in DV-infected macrophages were precipitated by anti-DAP12 mAb, blotted to nitrocellulose paper after fractionation on SDS-PAGE, followed by incubation with antibodies against phosphotyrosine and DAP12, respectively. JEV-induced DAP12 phosphorylation (m.o.i.=5) is inhibited by pLL3.7/DVLR1/CLEC5A. […] JEV-induced TNF-α secretion is inhibited by […] mAb (right). Data are expressed as the mean±s.d. of three independent experiments.

Assay [4] in a line: Enzyme linked immunoassay of receptor.Fc fusions on immobilized GLPS-F3. Type of assay: binding, Ganoderma lucidum. The note with it: GLPS-F3 100 ng/well; receptor.Fc 1 μg/ml. How it is done:
The interactions of polysaccharides with receptor.Fc fusion proteins was further investigated by performing an enzyme-linked immunoassay, which was based on immobilizing GLPS-F3 through both hydrophilic and hydrophobic forces onto microtiter plates (polysytrene). In this format, the number of different receptor.Fc fusions for profiling was increased in comparison to Example 7. To optimize the quantity of GLPS-F3 for immobilization, various amounts (3-1000 ng/well, diluted in 100 mM Tris buffer, pH9.5) of biotinylated-GLPS-F3 (Biotin-GLPS-F3) were coated onto MaxiSorp StarWell microtiter plates (50 μL/well; Nunc). The plates were incubated overnight at 4° C., and then the wells were washed twice with TBST, followed by blocking with 200 μL blocking buffer (2% BSA/TBST) for 1 hour at room temperature. Peroxidase-conjugated avidin (1:5000 dilution, Vector Laboratories) and TMB (tetramethylbenzidine) substrate was then used for detection of immobilized biotinylated GLPS-F3.
The interaction between GLPS-F3 and receptor.Fc was then tested. […] Wells were incubated with 100 μL TMB substrate for 15 min after TBST washing and read at 450 nm in a Fusion plate reader (Perkin Elmer). […]

B1: Fc.MDL-1: extracellular domain of human DVLR1/CLEC5A (MDL-1) fused to the Fc portion of human IgG1 (protein)
chain: MNWHMIISGLIVVVLKVVGMTLFLLYFPQIFNKSNDGFTTTRSYGTVSQIFGSSSPSPNGFITTRSYGTVCPKDWEFYQARCFFLSTSESSWNESRDFCKGKGSTLAIVNTPEKLFLQDITDAEKYFIGLIYHREEKRWRWINNSVFNGNVTNQNQNFNCATIGLTKTFDAASCDISYRRICEKNAK
On to B1, for which the “immunoprecipitation of Dengue virus (E protein detected)” value in assay [1] is on record as “able to immunoprecipitate DV; also recorded: detected”. Further, in assay [2], the “binding to DV pretreated with heat or dithiothreitol” value is “abolish”, the “binding to DV pretreated with PNGaseF” value was “substantially reduced” and the “interaction of receptor.Fc with Dengue virus (ELISA)” value is recorded as “binds; also recorded: interacts”. For the same molecule, in assay [2] (listed as DVLR1/CLEC5A.Fc), the “binding to DV pretreated with heat or dithiothreitol” value is given as “almost completely inhibited”, the “binding to DV pretreated with PNGaseF” value is “inhibited DVLR1/CLEC5A.Fc interaction significantly” and the “interaction of receptor.Fc with Dengue virus (ELISA)” value was “able to capture DV2”. In assay [2] (EDTA 10 mM), the “Ca^++ dependence of binding to Dengue virus” value was “Ca^++ independent; also recorded: no effect”. Further, the “interaction with JEV (ELISA)” value in assay [3] is listed as “not”. In assay [4], the “binding ability to GLPS-F3” value is reported as “minimal binding ability”.
